# Earlier results, collected in article PMC2654521.
# Several values for one entry are separate records, joined by “and”; a condition that tells them apart may be missing. Equal entries are not always repeated. Where two headings read alike, the source gives them in different places.
# Experiments:
# [1] = target: N-type calcium channel (Rattus norvegicus) (UniProt Q02294); experiment: radioligand
# [2] = target: N-type calcium channel (Rattus norvegicus) (UniProt Q02294); experiment: radioligand; remark: listed apart in the source
# Chain of UniProt Q02294 (Q02294 whole entry): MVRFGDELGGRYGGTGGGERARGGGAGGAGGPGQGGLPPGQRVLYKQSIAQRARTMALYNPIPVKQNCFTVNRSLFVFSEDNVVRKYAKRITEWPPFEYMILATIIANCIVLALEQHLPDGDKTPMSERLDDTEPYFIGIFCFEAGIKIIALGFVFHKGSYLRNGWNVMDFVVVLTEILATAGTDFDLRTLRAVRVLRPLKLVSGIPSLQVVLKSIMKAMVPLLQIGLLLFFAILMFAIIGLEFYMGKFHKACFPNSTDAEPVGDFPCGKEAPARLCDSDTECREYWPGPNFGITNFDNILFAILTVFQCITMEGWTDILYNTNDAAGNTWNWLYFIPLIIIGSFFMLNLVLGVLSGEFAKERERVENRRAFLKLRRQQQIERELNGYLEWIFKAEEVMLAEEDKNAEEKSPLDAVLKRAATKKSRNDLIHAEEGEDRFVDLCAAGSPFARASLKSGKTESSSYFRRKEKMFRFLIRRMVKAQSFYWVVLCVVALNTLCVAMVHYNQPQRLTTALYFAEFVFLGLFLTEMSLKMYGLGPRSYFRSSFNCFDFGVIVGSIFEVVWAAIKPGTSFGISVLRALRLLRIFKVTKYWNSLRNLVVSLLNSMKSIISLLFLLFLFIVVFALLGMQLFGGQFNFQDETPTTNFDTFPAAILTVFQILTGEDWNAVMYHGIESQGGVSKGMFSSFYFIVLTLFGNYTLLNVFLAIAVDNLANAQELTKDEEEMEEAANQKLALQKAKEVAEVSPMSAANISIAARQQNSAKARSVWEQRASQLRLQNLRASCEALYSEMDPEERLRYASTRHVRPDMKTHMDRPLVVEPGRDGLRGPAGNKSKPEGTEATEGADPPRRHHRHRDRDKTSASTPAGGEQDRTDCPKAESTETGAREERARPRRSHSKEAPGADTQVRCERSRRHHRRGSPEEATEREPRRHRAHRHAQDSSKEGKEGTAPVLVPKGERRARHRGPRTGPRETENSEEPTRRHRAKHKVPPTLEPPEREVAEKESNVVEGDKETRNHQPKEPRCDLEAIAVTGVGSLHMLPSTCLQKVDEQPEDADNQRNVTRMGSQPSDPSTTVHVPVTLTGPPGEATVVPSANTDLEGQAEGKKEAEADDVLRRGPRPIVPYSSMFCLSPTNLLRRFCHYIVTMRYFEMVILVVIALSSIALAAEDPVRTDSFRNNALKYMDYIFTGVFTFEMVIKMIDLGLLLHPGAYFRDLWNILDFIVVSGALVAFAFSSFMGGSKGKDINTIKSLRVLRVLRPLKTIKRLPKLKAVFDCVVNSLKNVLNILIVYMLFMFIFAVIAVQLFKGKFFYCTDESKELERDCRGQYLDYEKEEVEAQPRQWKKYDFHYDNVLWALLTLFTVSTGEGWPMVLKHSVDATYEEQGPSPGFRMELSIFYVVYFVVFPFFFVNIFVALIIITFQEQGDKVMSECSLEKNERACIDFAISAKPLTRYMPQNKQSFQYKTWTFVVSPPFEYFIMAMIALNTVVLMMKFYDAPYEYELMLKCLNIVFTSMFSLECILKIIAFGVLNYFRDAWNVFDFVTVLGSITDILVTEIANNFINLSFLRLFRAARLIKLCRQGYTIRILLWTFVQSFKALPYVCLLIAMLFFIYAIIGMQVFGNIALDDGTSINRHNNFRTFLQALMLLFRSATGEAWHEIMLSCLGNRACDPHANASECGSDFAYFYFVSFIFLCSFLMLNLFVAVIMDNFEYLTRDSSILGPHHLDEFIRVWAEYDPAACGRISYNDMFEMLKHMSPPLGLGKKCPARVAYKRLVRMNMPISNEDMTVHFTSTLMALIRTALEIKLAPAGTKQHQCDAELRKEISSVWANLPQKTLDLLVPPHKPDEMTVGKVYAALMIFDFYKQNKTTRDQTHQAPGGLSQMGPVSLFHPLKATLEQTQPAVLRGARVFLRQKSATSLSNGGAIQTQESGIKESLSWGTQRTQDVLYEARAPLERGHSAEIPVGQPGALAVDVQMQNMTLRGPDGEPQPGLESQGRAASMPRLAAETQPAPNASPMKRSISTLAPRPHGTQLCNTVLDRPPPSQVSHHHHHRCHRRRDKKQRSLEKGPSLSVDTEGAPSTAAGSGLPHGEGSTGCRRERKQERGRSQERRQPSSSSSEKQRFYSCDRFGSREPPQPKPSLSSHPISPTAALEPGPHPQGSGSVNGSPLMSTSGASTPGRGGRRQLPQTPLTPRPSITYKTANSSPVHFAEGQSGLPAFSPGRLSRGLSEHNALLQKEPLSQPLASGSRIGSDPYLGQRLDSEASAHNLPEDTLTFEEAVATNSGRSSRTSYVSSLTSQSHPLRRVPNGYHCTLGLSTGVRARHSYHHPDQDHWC
substance,measurement,setting,value
ziconotide (omega-conotoxin MVIIA) (from UniProt P05484),Kd,[1],1.1 pM and 9 pM
same,Ki,[1],1 pM
same,Kd,[2],0.007 nM and 0.018 nM
